Measured values published in publication doi:10.1101/2020.05.02.073981.

T1: His6-MmfR (Streptomyces coelicolor A3(2)) (UniProt Q7APH7)
T1 sequence: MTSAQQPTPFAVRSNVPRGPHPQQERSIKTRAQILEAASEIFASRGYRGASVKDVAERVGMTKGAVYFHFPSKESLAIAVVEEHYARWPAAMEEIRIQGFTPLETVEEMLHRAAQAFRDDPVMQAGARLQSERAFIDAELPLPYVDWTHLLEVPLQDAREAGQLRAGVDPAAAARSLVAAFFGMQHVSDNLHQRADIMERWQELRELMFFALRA

T2: MmfR Q130E Q130E (Streptomyces coelicolor A3(2)) (UniProt Q7APH7)
T2 sequence: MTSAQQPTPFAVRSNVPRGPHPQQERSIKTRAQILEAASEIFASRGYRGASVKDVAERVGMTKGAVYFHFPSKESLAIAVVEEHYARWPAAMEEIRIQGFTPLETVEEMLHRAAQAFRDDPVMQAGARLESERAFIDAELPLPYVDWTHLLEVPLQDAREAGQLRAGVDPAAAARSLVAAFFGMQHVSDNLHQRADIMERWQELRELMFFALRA

T3: MmfR Y144F Y144F (Streptomyces coelicolor A3(2)) (UniProt Q7APH7)
T3 sequence: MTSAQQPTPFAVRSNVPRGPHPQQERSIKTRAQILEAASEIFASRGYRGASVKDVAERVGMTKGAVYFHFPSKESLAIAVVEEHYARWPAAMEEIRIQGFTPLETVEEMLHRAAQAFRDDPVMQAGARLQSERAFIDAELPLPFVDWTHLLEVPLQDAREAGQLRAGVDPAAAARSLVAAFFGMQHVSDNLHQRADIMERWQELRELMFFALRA

T4: MmfR Y85F Y85F (Streptomyces coelicolor A3(2)) (UniProt Q7APH7)
T4 sequence: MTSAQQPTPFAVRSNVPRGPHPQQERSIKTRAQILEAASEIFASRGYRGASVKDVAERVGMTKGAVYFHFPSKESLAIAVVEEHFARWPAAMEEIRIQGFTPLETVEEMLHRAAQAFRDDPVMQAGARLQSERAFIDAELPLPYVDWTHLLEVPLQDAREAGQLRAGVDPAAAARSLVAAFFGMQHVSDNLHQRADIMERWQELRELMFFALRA

T5: His6-MmfR (Streptomyces coelicolor A3(2), UniProt Q7APH7 1-214)
T5 sequence: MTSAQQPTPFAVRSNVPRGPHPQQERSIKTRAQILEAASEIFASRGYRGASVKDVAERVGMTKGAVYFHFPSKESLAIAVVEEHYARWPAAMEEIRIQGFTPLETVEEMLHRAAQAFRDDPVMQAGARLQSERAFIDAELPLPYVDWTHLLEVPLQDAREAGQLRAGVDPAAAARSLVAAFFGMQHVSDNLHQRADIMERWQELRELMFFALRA


What was measured:
Test in all cases: EMSA
[1] = target: T1, His6-MmfR (Streptomyces coelicolor A3(2))
[2] = target: T2, MmfR Q130E Q130E (Streptomyces coelicolor A3(2))
[3] = target: T3, MmfR Y144F Y144F (Streptomyces coelicolor A3(2))
[4] = target: T4, MmfR Y85F Y85F (Streptomyces coelicolor A3(2))
His6-MmfR = target: T5, His6-MmfR

Row | Molecule | binding [1] | binding result (His6-MmfR) | other results
1 | GGACCACCGGCTGGCTTGCCGCGCTGCAAGACAGCCGGGATCGGTAAGCTGACCGAGAGAAATATACCTGCGGGAAGGTATTATGCAATGGGTTTCCGTG (double strand) [mmfL-mmfR internal fragment, 100 bp] | binds |  | 
2 | GGCGCCTCACAGTGTCAAACCTTCCCGAAGGTTTTTTATGACTCGTAACGGAGAGTTAAACCGGGGCTTACGAGAGCGGCGGGGCCTCGGTGTTTGGA (double strand) [mmyB-mmyY internal fragment, 98 bp] | binds |  | 
3 | GGCGCCTCACAGTGTCAAACCTTCCCGAAGGTTTTTTATGACTCGTAACGGAGAGTTAAACCGGGGCTTACGAGAGCGGCGGGGCCTCGGTGTTTGGACCGCAACTCGGCGGGGCCCTGGTGCTGAGAACACCACGTCTGAGGCCCCTAGCAGAAGTTCGCTCTGGCAGCCTTCGCACGACCCTGCCGATACTCGCCAGCGATCCGAACCACTCGCCGAAGGAGTTCACC (double strand) [mmyB-mmyY intergenic region, 230 bp] | binds |  | 
4 | GGCTGCCTTCCTTCGTGTGTGCGGGCCCTGCGGGCGCCATGCTGGTGCGACCCGGGTCGGCACGGAAACCCATTGCATAATACCTTCCCGCAGGTATATTTCTCTCGGTCAGCTTACCGATCCCGGCTGTCTTGCAGCGCGGCAAGCCAGCCGGTGGTCCCGTACGAGGACACACCGGGAGATGTAGCGCCCCT (double strand) [mmfL-mmfR intergenic region, 194 bp] | binds |  | binding [2]: binds; binding [3]: binds; binding [4]: binds
5 | MARE2 hairpin (structured_DNA) DNA: GCAAAAAACCTTCGGGAAGGTTTGACGCGAGGCGTCAAACCTTCCCGAAGGTTTTTTGC |  | binds | 
6 | MARE1 hairpin (structured_DNA) DNA: GCAATATACCTGCGGGAAGGTATTATGCGAGGCATAATACCTTCCCGCAGGTATATTGC |  | binds | 
